According to the supplement of paper PMC9170038:

System: MS2 coat protein
Assay: apparent KD of MS2 coat protein; designed switch direction (-1 OFF switch, 1 ON switch): 1; higher = weaker reporter binding
Summary of the method: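 An oligonucleotide input, 200 uM small-molecule ligand, or no input was present during titration of SNAP-549-labelled MS2 coat protein, which was doubled from 0.7 or 1.5 nM to 3 µM. Designed RNA switches had been transcribed on Illumina chips by stalled E. coli RNA polymerase. Apparent KD per design is the median over clusters of curves fitted to normalised cluster fluorescence.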

[1] = input ligand: microRNA oligo, concentration not stated
[2] = Eterna round: R95, input ligand: FMN 200 uM
[3] = Eterna round: R95, input ligand: microRNA oligo, concentration not stated
[4] = Eterna round: R95, input ligand: none

Row | Sequence | apparent KD of MS2 coat protein (input ligand: FMN 200 uM) [nM] | apparent KD of MS2 coat protein [1] [nM] | apparent KD of MS2 coat protein (input ligand: none) [nM] | apparent KD of MS2 coat protein [2] [nM] | apparent KD of MS2 coat protein [3] [nM] | apparent KD of MS2 coat protein [4] [nM]
1 | UGGUACAUGGGAGGAUAUCAUGUAGAAACAUGAGGAUCACCCAUGUAGAUGGCACGAUUCGUGAAUGAGAAGGCCCAUGUACCU [JL SSNG1 3.60] (Eterna round: R96, puzzle: Same State NG 2) | 36.8 | 38.2 | 52.8 |  |  | 
2 | UGGUACAUGGGAGGAUAUCAUGUAGAAACAUGAGGAUCACCCAUGUAGAUGGCAGCUUUGCUGAAUGAGAAGGCCCAUGUACCU [JL SSNG1 3.58] (Eterna round: R96, puzzle: Same State NG 2) | 15.6 | 18.9 | 22.8 |  |  | 
3 | UGGUACAUGGGAGGAUAUCAUGUAGAAACAUGAGGAUCACCCAUGUAGGUGGCCGGUAACCGGAAUGAGAAGGCCCAUGUACCU [JL SSNG1 3.62] (Eterna round: R96, puzzle: Same State NG 2) | 48.6 | 48.6 | 61.1 |  |  | 
4 | UGGUACAUGGGAGGAUAUCAUGUAGAGACAUGAGGAUCACCCAUGUAGAUGGCCGGUAACCGGGAUGAGAAGGCCCAUGUACCU [JL SSNG1 3.65] (Eterna round: R96, puzzle: Same State NG 2) | 161 | 56.3 | 151 |  |  | 
5 | UGGUACAUGGGAGGAUAUGGGCAAGAGACAUGAGGAUCACCCAUGUAUUAAAAGCCGAAAGGCAUCUAGAAGGCCCAUGUACCU [JL SSNG1 3.86] (Eterna round: R96, puzzle: Same State NG 2) | 13.3 | 55.9 | 86.7 |  |  | 
6 | UGGUACAUGGGAGGAUAUGGGCAUGAGACAUGAGGAUCACCCAUGUAUUAAAAGCCGAAAGGCAUCUAGAAGGCCCAUGUACCU [JL SSNG1 3.85] (Eterna round: R96, puzzle: Same State NG 2) | 17.1 | 137 | 214 |  |  | 
7 | UGGUACAUGGGAGGAUAUGGGUUGAUAACAUGAGGAUCACCCAUGUUAAAUAUGCCGAGAGGCAACUAGAAGGCCCAUGUACCU [JL SSNG1 3.00] (Eterna round: R96, puzzle: Same State NG 2) | 28.5 | 380 | 644 |  |  | 
8 | UGUACAUGAGGAUCACCCAUGUCUAGACAUGUUAAUAUAAUGUAGGAUAUAUAAAAUUUAAAUUAAUAGAAGGACAAUUUUUUU [JMF's solution 2] (Eterna round: R96, puzzle: Same State NG 3) | 113 | 155 | 212 |  |  | 
9 | UGUCCAGCCUGAGCUGGACAAAAGCAUGUACAUGAGGAUCACCCAUGUUCAUGUACAAGCUUUUUGCUCGUCUUACA [salish99_208a_r3_080] (puzzle: Sensor for hsa-mir-208a) |  |  |  | 347 | 15.2 | 529
10 | UGUUGUAUUACAGGAUAUCUAGUUUUUUUAUUUAGAGAAGGGUAUUCACAUGAGGAUCACCCAUGUAUAUACGAGGAAGUUGUG [JMF's solution 33] (Eterna round: R96, puzzle: Same State NG 1) |  | 36.4 |  |  |  | 
11 | UGUUGUAUUACAGGAUAUCUAUUAGUUGUAUUUAGAGAAGGGUAUUCACAUGAGGAUCACCCAUGUAUAUACGAGGAAGUUGUG [JMF's solution 92] (Eterna round: R96, puzzle: Same State NG 1) | 79.8 | 44.1 | 59.7 |  |  | 
12 | UGUUGUAUUACAGGAUAUCUAUUAUUUGUAUUUAGAGAAGGGUAUUCACAUGAGGAUCACCCAUGUAUAUACGAGGAAGUUGUG [JMF's solution 20] (Eterna round: R96, puzzle: Same State NG 1) |  | 42.4 |  |  |  | 
13 | UGUUGUAUUACAGGAUAUCUAUUAUUUUUACUUAGAGAAGGGUAUUCACAUGAGGAUCACCCAUGUAUAUACGAGGAAGUUGUG [JMF's solution 27] (Eterna round: R96, puzzle: Same State NG 1) |  | 38.2 |  |  |  | 
14 | UGUUGUAUUACAGGAUAUCUAUUGUUUUUUUUUAGAGAAGGGUAUUCACAUGAGGAUCACCCAUGUAUAUACGAGGAAGUUGUG [JMF's solution 79] (Eterna round: R96, puzzle: Same State NG 1) |  | 43.2 |  |  |  | 
15 | UGUUGUUAAUUAGGAUAUGGGCACAUGAGGAUCACCCAUGUAUUUUCGAUGCUAUGUGGAGACGUCUAGAAGGGAUGGCUAACA [SameState NG2 #88] (Eterna round: R96, puzzle: Same State NG 2) | 254 | 151 | 158 |  |  | 
16 | UUAAAACAUGAGGAUCACCCAUGUAAUAAUAUGGGAGGAUAUCAGAAUGUAUGUAUGUAAUGAGAAGGCCUAAAUG [Mat - Same State 1 - Mod of Eli - D77] (puzzle: Same State 1) |  |  |  | 70.4 | 156 | 398
17 | UUAAAACAUGAGGAUCACCCAUGUCAACAAAGUCGAGGAUAUGGGCAAAUAAAAUAAGAACCAGAAGGCGAAUAAA [salish99_SS1_r3_002] (puzzle: Same State 1) |  |  |  | 39.5 | 245 | 412
18 | UUAAUAAUGUUAGGAUAUACAUGAGGAAUCCUCGUAGAAGGAACAUGACAUGAGGAUCACCCAUGUAGCGCUCCGAAGAGCGCA [Mat - Same State NG 1 - JL mod - D46] (Eterna round: R96, puzzle: Same State NG 1) | 254 | 115 | 161 |  |  | 
19 | UUAAUGAUGUAAGGAUAUACAUGAGGAAUUCUCGUAGAAGGUACAUGACAUGAGGAUCACCCAUGUAUCGCUCCGUAGAGCGUA [JL SSNG1 1.12] (Eterna round: R96, puzzle: Same State NG 1) | 190 | 119 | 79.7 |  |  | 
20 | UUAAUGAUGUAAGGAUAUACAUGAGGAUUUCUCGUAGAAGGUACAGGACAUGAGGAUCACCCAUGUGUCGCUCCGUAGAGCGUA [JL SSNG1 1.08] (Eterna round: R96, puzzle: Same State NG 1) | 349 | 414 | 525 |  |  | 
21 | UUAAUUUGUUGAGGAUAUUAUGUCAAAAGAGAAGACAUGAGGAUCACCCAUGUGAGAAAAGGUUUUAAGAAGGCAACAUUCAUA [JR_SSNG2_Sub089] (Eterna round: R96, puzzle: Same State NG 2) | 39.5 | 77.7 | 115 |  |  | 
22 | UUACUCAUGUAAGGAUAUGCAGCCGAAACGGCUGCAGAAGGUACUAAAAUACAUGAGGAUCACCCAUGUCUUUUUAAUUUAGAC [Mat - Same State NG 1 - JL mod - D83] (Eterna round: R96, puzzle: Same State NG 1) | 58.4 | 28.4 | 33.3 |  |  | 
23 | UUACUCAUGUAAGGAUAUGCAGCCGUUUCGGCUGCAGAAGGUACUAUAAUACAUGAGGAUCACCCAUGUCUCUAUUAUUUGGUG [salish99_SSNG1_r04_923] (Eterna round: R96, puzzle: Same State NG 1) | 111 | 51.1 | 84.4 |  |  | 
24 | UUACUCCCUACAUGAGGAUCACCCAUGUUUUACAAACCCAACGAGGAUAUGUUGAGCGGAUGUAAGCAGAAGGCGUAGGGUAGA [Eternabot solution 37] (Eterna round: R96, puzzle: Same State NG 3) | 143 | 16.7 | 40 |  |  | 
25 | UUAGAAUUGCAAGGAUAUCUAAUGUAGAUAGUAAGAGAAGGUGCUUGAUAGUUACAUGAGGAUCACCCAUGUAUUUGGGUUUAU [JR_SSNG1_Sub057] (Eterna round: R96, puzzle: Same State NG 1) |  | 345 |  |  |  | 
26 | UUAUAACAUGAGGAUCACCCAUGUCAACAAAGUCGAGGAUAUGGGCAAGAAGUGAGAGAACCAGAAGGCGAAUAUU [Mat - Same State 1 - Mod of UCT - D30] (puzzle: Same State 1) |  |  |  | 72 | 88.7 | 97.4
27 | UUAUAACAUGAGGAUCACCCAUGUCAACAAAGUCGAGGAUAUGGGCAUAGAUUAUAAGAACCAGAAGGCGAAUAUU [Mat - Same State 1 - Mod of UCT - D40] (puzzle: Same State 1) |  |  |  | 51.8 | 117 | 118
28 | UUCUCAUUUACAUGAGGAUCACCCAUGUUUUUAUGUCAGAGAUAGGAUAUAGUUCUCUCGUUUUUCUAGAAGGAUCUUUUUAUU [JR_SSNG3_Sub086] (Eterna round: R96, puzzle: Same State NG 3) | 65.9 | 41.3 | 64.6 |  |  | 
